From article PMC3538135

Target: CD4 (recombinant CD4 antigen) (UniProt P01730 26-396)
Assay: ellipsometry

GGGGTTGGTTGTGTTGGGTGTTGTGTCCAACCCCC (ssDNA, 5' thiol-C6) [IFN-gamma aptamer (nonsense control)]
binding result: no binding
